According to article PMC1807944:
Values joined by “and” are separate entries in the source; they are usually repeats but may differ in a detail not shown here. Identical values can stand only once.

Key:
[1] = target: HIV-1 integrase (IN), monomer E (HIV-1) (UniProt P04585); assay: SAXS titration
HIV-1 integrase (HIV-1) = assay: SAXS

Substance | Kd [1] [nM] | stoichiometry N (HIV-1 integrase (HIV-1))
AAAAAAAAAAAAAAAAAAAAA (double strand) [ds A21-T21] | 40 | 
HIV-1 integrase (enzyme) |  | 2 and 4
